Reference: patent US20210269480A1 (published 2021)
*1 amine or outer side, *2 acyl side, *3 side chain or, on linkers, in order; H or OH if unused. Bridges are numbered along the chain shown (N, C = ends). Primed or numbered codes have the meaning given here. Where no end group is shown, it is not given here. [ ]: non-standard residue; d: D form. TATA = O=C(CC[*:1])N1CN(C(=O)CC[*:2])CN(C(=O)CC[*:3])C1; 1Nal = N[C@@H](Cc1cccc2ccccc12)C(=O)O; PABC = O=C(OCc1ccc(N[*:1])cc1)[*:2]; Glutaryl = O=C(CCCC(=O)[*:2])[*:1]; Cya = N[C@@H](CS(=O)(=O)O)C(=O)O; Hyp = O=C(O)[C@@H]1C[C@@H](O)CN1; dCya = N[C@H](CS(=O)(=O)O)C(=O)O; hArg = N=C(N)NCCCC[C@H](N)C(=O)O; Cit = NC(=O)NCCC[C@H](N)C(=O)O; MMAE = monomethyl auristatin E; PABC′ = p-aminobenzylcarbamate; βAla = NCCC(=O)O; Sar = CNCC(=O)O

T1: human Nectin-4 (human, UniProt Q96NY8 32-349)
T1 construct: a Gly32-Ser349 FLAG construct is described only under the SPR assay; also called PVRL4
T1 sequence (looked up): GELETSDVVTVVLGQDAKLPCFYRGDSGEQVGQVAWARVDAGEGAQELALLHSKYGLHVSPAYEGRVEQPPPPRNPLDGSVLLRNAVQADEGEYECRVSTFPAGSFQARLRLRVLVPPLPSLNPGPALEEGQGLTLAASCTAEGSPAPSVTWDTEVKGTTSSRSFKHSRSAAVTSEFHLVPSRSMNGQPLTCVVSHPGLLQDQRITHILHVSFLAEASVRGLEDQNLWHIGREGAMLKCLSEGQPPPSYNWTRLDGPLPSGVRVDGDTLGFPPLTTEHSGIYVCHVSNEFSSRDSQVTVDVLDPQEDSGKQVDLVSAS

T2: Human Nectin-4 (residues Gly32-Ser349) with C-terminal FLAG tag, biotinylated (human, UniProt Q96NY8 32-349, randomly biotinylated with EZ-Link Sulfo-NHS-LC-LC-Biotin)
T2 construct: range 32-349; Captured through biotin on a streptavidin CM5 chip in the SPR assay; also called PVRL4; not shown: C-terminal FLAG tag
T2 sequence (looked up): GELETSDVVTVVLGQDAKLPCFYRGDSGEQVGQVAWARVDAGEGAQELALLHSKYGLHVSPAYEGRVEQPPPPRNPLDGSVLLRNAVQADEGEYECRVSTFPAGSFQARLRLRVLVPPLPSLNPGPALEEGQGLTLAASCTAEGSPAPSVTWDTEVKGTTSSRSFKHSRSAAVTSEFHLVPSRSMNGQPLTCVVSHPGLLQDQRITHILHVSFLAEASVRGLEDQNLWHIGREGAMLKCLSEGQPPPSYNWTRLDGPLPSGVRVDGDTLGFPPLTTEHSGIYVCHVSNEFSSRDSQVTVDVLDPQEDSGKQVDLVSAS


biological target: Human Nectin-4 (residues Gly32-Ser349) with C-terminal FLAG tag, biotinylated (human) (UniProt Q96NY8); test: SPR (Biacore), biotinylated human Nectin-4 on streptavidin chip

| Kd | Binder |
| --- | --- |
| 1.92 nM | {Ac-βAla}-[Sar][Sar][Sar][Sar][Sar][Sar][Sar][Sar][Sar][Sar]CP[1Nal][dD]CM[hArg][Cya]WSTP[Hyp]WC (linker 11-15-25 via TATA (inferred)) [BCY8278] |
| 2 nM | {Ac-βAla}-[Sar][Sar][Sar][Sar][Sar][Sar][Sar][Sar][Sar][Sar]CP[1Nal][dCya]CM[hArg][Cya]WSTP[Hyp]WC (linker 11-15-25 via TATA (inferred)) [BCY8280] |
| 0.94 nM | Ac-CP[1Nal][dD]CM[hArg][Cya]WSTP[Hyp]WC (linker 1-5-15 via TATA (inferred)) [BCY8161] |
| 6.11 nM | {Ac-βAla}-[Sar][Sar][Sar][Sar][Sar][Sar][Sar][Sar][Sar][Sar]CP[1Nal][dD]CM[Cya][Cya]WSTP[Hyp]WC (linker 11-15-25 via TATA (inferred)) [BCY8281] |
| 0.662 nM | {MMAE-PABC′-Cit-Val-Glutaryl-βAla}-[Sar][Sar][Sar][Sar][Sar][Sar][Sar][Sar][Sar][Sar]CP[1Nal][dCya]CM[hArg][Cya]WSTP[Hyp]WC (linker 11-15-25 via TATA (inferred)) [BCY8784] |

biological target: T1, human Nectin-4; test: FP direct binding, fluorescent peptide
Method: Affinity of the peptides of the invention for human Nectin-4 (Ki) was determined using a fluorescence polarisation assay, in accordance with the methods disclosed in WO 2016/067035. […] Measurements were conducted on a BMG PHERAstar FS equipped with an “FP 485 520 520” optic module which excites at 485 nm and detects parallel and perpendicular emission at 520 nm. The PHERAstar FS was set at 25° C. with 200 flashes per well and a positioning delay of 0.1 second, with each well measured at 5 to 10 minute intervals for 60 minutes. […] Data was analysed using Systat Sigmaplot version 12.0. mP values were fit to a user defined quadratic equation to generate a Kd value: f=ymin+(ymax−ymin)/Lig*((x+Lig+Kd)/2-sqrt((((x+Lig+Kd)/2)\hat{ }2)-(Lig*x))).

| Ki | Binder |
| --- | --- |
| 888 nM | ACVTTSYDCFLHLLGCA (linker 2-9-16 via TATA; not fully specified, Direct FP used peptides with a fluorescent tag; also called 80-11-00) [BCY471] |
| 5 nM | ACPFGCMKNWSWPIWCA (linker 2-6-16 via TATA; not fully specified (N-terminus), also called FI-A-(SQ ID NO: 1)-A) [80-09-02-N006] |
| 72 nM | QKWCAPLSDYWCNRICA (linker 4-12-16 via TATA; not fully specified, also called 80-10-13-T01) [BCY3400] |
| 745 nM | carboxyfluorescein-CPF[dD]CM[hArg]NWSTPIWC (linker 1-5-15 via TATA) [BCY8208] |
| 208 nM | ACWPLDSYWCARICA (linker 2-10-14 via TATA; not fully specified, Direct FP used peptides with a fluorescent tag; also called 80-10-00) [BCY488] |
| 502 nM | ACVTTSYDCWVRLGQCA (linker 2-9-16 via TATA; not fully specified, Direct FP used peptides with a fluorescent tag; also called 80-11-01) [BCY472] |
| 30 nM | ACVTTSYDCWVTLGHCSRF (linker 2-9-16 via TATA; not fully specified, Direct FP used peptides with a fluorescent tag; also called 80-11-08-T01) [BCY3406] |
| 269 nM | VDWCAPLDDYWCDRICA (linker 4-12-16 via TATA; not fully specified, Direct FP used peptides with a fluorescent tag; also called 80-10-12-T01) [BCY462] |

biological target: T2, Human Nectin-4 (residues Gly32-Ser349) …; test: SPR (Biacore), biotinylated human Nectin-4 on streptavidin chip

| Binder | Kd |
| --- | --- |
| {MMAE-PABC-Cit-Val-Glutaryl-βAla}-[Sar][Sar][Sar][Sar][Sar][Sar][Sar][Sar][Sar][Sar]CP[1Nal][dD]CM[hArg]DWSTP[Hyp]WC (linker 11-15-25 via TATA, also called BT8009; MMAE-PABC-Cit-Val-Glutaryl-BCY8234) [BCY8245] | 5.12 nM |
| {MMAE-PABC-Cit-Val-Glutaryl-βAla}-[Sar][Sar][Sar][Sar][Sar]CPF[dD]CM[hArg]NWSWPIWC (linker 6-10-20 via TATA, also called MMAE-PABC-Cit-Val-Glutaryl-BCY7556) [BCY7683] | 27.1 nM |
| {MMAE-PABC′-Cit-Val-Glutaryl-βAla}-[Sar][Sar][Sar][Sar][Sar][Sar][Sar][Sar][Sar][Sar]CP[1Nal][dR]CL[hArg]HWSTP[Hyp]WC (linker 11-15-25 via TATA, also called MMAE-PABC-Cit-Val-Glutaryl-BCY8231) [BCY8253] | 6.22 nM |
| {MMAE-PABC′-Cit-Val-Glutaryl-βAla}-[Sar][Sar][Sar][Sar][Sar][Sar][Sar][Sar][Sar][Sar]CP[1Nal][dR]CM[hArg]NWSTP[Hyp]WC (linker 11-15-25 via TATA, also called MMAE-PABC-Cit-Val-Glutaryl-BCY8232) [BCY8254] | 4.11 nM |
| {MMAE-PABC′-Cit-Val-Glutaryl-βAla}-[Sar][Sar][Sar][Sar][Sar][Sar][Sar][Sar][Sar][Sar]CPF[dD]CM[hArg]NWSTPIWC (linker 11-15-25 via TATA, also called MMAE-PABC-Cit-Val-Glutaryl-BCY7814) [BCY7825] | 11.6 nM |

The remaining lines, values ahead:

| Kd | Binder |
| --- | --- |
| 8.58 nM | {MMAE-PABC′-Cit-Val-Glutaryl-βAla}-[Sar][Sar][Sar][Sar][Sar][Sar][Sar][Sar][Sar][Sar]CP[1Nal][dR]CM[hArg]DWSTP[Hyp]WC (linker 11-15-25 via TATA, also called MMAE-PABC-Cit-Val-Glutaryl-BCY8235) [BCY8255] |
| 0.804 nM | {MMAE-PABC′-Cit-Val-Glutaryl-βAla}-[Sar][Sar][Sar][Sar][Sar][Sar][Sar][Sar][Sar][Sar]CP[1Nal][dCya]CM[hArg]DWSTP[Hyp]WC (linker 11-15-25 via TATA, also called MMAE-PABC-Cit-Val-Glutaryl-BCY8269) [BCY8783] |

biological target: T1, human Nectin-4; test: FP competition, tracer SEQ ID NO 217
Method: Peptides were diluted to an appropriate concentration in assay buffer as described in the direct binding assay with a maximum of 5% DMSO, then serially diluted 1 in 2. […] Measurements were conducted as for the direct binding assay, however the gain was determined prior to the first measurement. Data analysis was in Systat Sigmaplot version 12.0 where the mP values were fit to a user defined cubic equation to generate a Ki value: […]

| Ki | Binder |
| --- | --- |
| 47 nM | QKWCAPLSDYWCNRICA (linker 4-12-16 via TATA; not fully specified, also called 80-10-13-T01) [BCY3400] |
| 4 nM | Ac-CP[1Nal][dD]CM[hArg][Cya]WSTP[Hyp]WC (linker 1-5-15 via TATA (inferred)) [BCY8161] |

biological target: T2, Human Nectin-4 (residues Gly32-Ser349) …; test: SPR (Biacore), biotinylated human Nectin-4 on streptavidin chip; remark: another data set of the same source
Method: Biacore experiments were performed to determine kₐ (M⁻¹s⁻¹), kd (s⁻¹), KD (nM) values of monomeric peptides binding to human Necin-4 protein (obtained from Charles River).
For analysis of peptide binding, a Biacore 3000 instrument was used utilising a CM5 chip (GE Healthcare). Streptavidin was immobilized on the chip using standard amine-coupling chemistry at 25° C. with HBS-N (10 mM HEPES, 0.15 M NaCl, pH 7.4) as the running buffer. Briefly, the carboxymethyl dextran surface was activated with a 7 minute injection of a 1:1 ratio of 0.4 M 1-ethyl-3-(3-dimethylaminopropyl) carbodiimide hydrochloride (EDC)/0.1 M N-hydroxy succinimide (NHS) at a flow rate of 10 μl/min. For capture of streptavidin, the protein was diluted to 0.2 mg/ml in 10 mM sodium acetate (pH 4.5) and captured by injecting 120 μl of streptavidin onto the activated chip surface. Residual activated groups were blocked with a 7 minute injection of 1 M ethanolamine (pH 8.5) and biotinylated Nectin-4 captured to a level of 1,200-1,800 RU. Buffer was changed to PBS/0.05% Tween 20 and a dilution series of the peptides was prepared in this buffer with a final DMSO concentration of 0.5%. The top peptide concentration was 100 nM with 6 further 2-fold dilutions. The SPR analysis was run at 25° C. at a flow rate of 50 μl/min with 60 seconds association and dissociation between 400 and 1,200 seconds depending upon the individual peptide. Data were corrected for DMSO excluded volume effects. All data were double-referenced for blank injections and reference surface using standard processing procedures and data processing and kinetic fitting were performed using Scrubber software, version 2.0c (BioLogic Software). Data were fitted using simple 1:1 binding model allowing for mass transport effects where appropriate.

| Binder | Kd |
| --- | --- |
| Ac-CP[1Nal][dR]CM[Hyp]DWSTP[Hyp]WC (linker 1-5-15 via TATA, Bicyclic peptide cyclised with TATA) [BCY8194] | 1.9 nM |
| Ac-CP[1Nal][dR]CMPDWSTP[Hyp]WC (linker 1-5-15 via TATA, Bicyclic peptide cyclised with TATA) [BCY8193] | 1.3 nM |
| Ac-CP[1Nal][dR]CM[hArg]DWSTPIWC (linker 1-5-15 via TATA, Bicyclic peptide cyclised with TATA) [BCY8215] | 1.62 nM |

Results, then the binder that gave them:

| Kd | Binder |
| --- | --- |
| 5.99 nM | {Ac-βAla}-[Sar][Sar][Sar][Sar][Sar][Sar][Sar][Sar][Sar][Sar]CP[1Nal][dD]CM[Cya]DWSTP[Hyp]WC (linker 11-15-25 via TATA, Bicyclic peptide cyclised with TATA) [BCY8277] |
| 3.31 nM | {Ac-βAla}-[Sar][Sar][Sar][Sar][Sar][Sar][Sar][Sar][Sar][Sar]CP[1Nal][dCya]CM[Cya]DWSTP[Hyp]WC (linker 11-15-25 via TATA, Bicyclic peptide cyclised with TATA) [BCY8279] |
| 0.86 nM | {Ac-βAla}-[Sar][Sar][Sar][Sar][Sar][Sar][Sar][Sar][Sar][Sar]CP[1Nal][dCya]CM[hArg]DWSTP[Hyp]WC (linker 11-15-25 via TATA, Bicyclic peptide cyclised with TATA) [BCY8276] |
